B1: Myogenin (Homo sapiens), P15173 (parent)
chain: MELYETSPYFYQEPRFYDGENYLPVHLQGFEPPGYERTELTLSPEAPGPLEDKGLGTPEHCPGQCLPWACKVCKRKSVSVDRRRAATLREKRRLKKVNEAFEALKRSTLLNPNQRLPKVEILRSAIQYIERLQALLSSLNQEERDLRYRGGGGPQPGVPSECSSHSASCSPEWGSALEFSANPGDHLLTADPTDAHNLHSLTSIVDSITVEDVSVAFPDETMPN
partner: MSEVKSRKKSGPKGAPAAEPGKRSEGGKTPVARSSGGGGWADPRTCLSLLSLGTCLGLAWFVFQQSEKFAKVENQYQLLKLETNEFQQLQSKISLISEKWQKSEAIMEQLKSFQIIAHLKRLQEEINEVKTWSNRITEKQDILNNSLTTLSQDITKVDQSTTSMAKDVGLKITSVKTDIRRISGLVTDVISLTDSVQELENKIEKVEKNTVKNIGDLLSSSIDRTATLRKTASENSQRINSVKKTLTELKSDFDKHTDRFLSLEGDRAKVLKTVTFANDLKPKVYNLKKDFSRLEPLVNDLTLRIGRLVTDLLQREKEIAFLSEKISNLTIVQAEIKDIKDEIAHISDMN
B2: Microtubule-associated tumor suppressor candidate 2 (Homo sapiens), Q5JR59-3 (parent)
chain: MGHCCCKPYNCLQCLDKTNESALVKEKELSIELANIRDEVAFHTAKCEKLQKEKEELERRFEDEVKRLGWQQQAELQELEERLQLQFEAEMARLQEEHGDQLLSIRCQHQEQVEDLTASHDAALLEMENNHTVAITILQDDHDHKVQELMSTHELEKKELEENFEKLRLSLQDQVDTLTFQSQSLRDRARRFEEALRKNTEEQLEIALAPYQHLEEDMKSLKQVLEMKNQQIHEQEKKILELEKLAEKNIILEEKIQVLQQQNEDLKARIDQNTVVTRQLSEENANLQEYVEKETQEKKRLSRTNEELLWKLQTGDPTSPIKLSPTSPVYRGSSSGPSSPARVSTTPR
partner: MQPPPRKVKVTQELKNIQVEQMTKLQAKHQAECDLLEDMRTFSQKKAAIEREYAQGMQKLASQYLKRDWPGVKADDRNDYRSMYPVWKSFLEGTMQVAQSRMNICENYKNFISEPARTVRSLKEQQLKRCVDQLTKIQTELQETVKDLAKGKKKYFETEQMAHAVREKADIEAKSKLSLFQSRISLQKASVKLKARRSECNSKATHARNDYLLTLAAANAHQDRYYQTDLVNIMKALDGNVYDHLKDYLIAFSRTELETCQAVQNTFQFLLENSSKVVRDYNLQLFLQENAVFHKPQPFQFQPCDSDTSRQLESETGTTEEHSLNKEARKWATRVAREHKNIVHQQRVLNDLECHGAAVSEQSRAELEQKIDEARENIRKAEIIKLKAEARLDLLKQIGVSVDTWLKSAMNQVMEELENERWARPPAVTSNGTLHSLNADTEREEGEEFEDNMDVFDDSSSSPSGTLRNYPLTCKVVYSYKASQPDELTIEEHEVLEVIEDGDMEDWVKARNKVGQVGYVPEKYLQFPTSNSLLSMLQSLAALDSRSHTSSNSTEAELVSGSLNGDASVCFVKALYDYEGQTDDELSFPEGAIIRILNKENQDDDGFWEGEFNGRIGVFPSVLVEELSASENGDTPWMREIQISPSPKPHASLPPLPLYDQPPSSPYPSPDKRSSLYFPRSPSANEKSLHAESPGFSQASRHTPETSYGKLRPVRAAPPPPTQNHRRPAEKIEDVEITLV
B3: Four and a half LIM domains protein 2 (Homo sapiens), Q14192 (parent)
chain: MTERFDCHHCNESLFGKKYILREESPYCVVCFETLFANTCEECGKPIGCDCKDLSYKDRHWHEACFHCSQCRNSLVDKPFAAKEDQLLCTDCYSNEYSSKCQECKKTIMPGTRKMEYKGSSWHETCFICHRCQQPIGTKSFIPKDNQNFCVPCYEKQHAMQCVQCKKPITTGGVTYREQPWHKECFVCTACRKQLSGQRFTARDDFAYCLNCFCDLYAKKCAGCTNPISGLGGTKYISFEERQWHNDCFNCKKCSLSLVGRGFLTERDDILCPDCGKDI
partner: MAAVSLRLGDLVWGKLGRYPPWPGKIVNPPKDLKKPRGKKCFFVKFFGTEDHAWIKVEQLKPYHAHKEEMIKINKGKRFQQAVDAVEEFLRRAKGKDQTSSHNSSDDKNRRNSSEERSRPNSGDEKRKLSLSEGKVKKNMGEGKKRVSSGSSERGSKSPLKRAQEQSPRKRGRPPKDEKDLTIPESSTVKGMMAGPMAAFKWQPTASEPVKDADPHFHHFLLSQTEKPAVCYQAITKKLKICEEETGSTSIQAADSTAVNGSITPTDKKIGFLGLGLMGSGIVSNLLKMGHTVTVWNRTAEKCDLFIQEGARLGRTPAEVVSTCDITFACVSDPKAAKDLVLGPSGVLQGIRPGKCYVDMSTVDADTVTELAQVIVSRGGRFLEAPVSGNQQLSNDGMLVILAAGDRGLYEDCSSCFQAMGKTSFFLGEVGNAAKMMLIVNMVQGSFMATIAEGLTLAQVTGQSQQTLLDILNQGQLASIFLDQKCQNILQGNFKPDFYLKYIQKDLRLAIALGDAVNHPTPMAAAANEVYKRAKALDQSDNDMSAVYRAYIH
B4: Cytochrome b-245 chaperone 1 (Homo sapiens), Q9BQA9 (parent)
chain: MYLQVETRTSSRLHLKRAPGIRSWSLLVGILSIGLAAAYYSGDSLGWKLFYVTGCLFVAVQNLEDWEEAIFDKSTGKVVLKTFSLYKKLLTLFRAGHDQVVVLLHDVRDVSVEEEKVRYFGKGYMVVLRLATGFSHPLTQSAVMGHRSDVEAIAKLITSFLELHCLESPTELSQSSDSEAGDPASQS
partner: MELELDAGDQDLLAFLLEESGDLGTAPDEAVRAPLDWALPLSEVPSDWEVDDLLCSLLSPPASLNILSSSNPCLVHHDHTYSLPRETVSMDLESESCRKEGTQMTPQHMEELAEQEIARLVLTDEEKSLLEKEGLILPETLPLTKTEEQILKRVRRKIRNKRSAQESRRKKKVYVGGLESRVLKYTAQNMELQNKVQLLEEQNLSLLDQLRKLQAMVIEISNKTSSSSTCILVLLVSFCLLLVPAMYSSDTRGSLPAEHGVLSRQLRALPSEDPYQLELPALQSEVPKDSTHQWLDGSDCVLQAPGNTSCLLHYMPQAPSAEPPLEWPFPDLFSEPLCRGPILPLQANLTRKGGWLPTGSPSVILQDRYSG
B5: X antigen family member 3 (Homo sapiens), Q8WTP9 (parent)
chain: MIWRGRSTYRPRPRRSVPPPELIGPMLEPGDEEPQQEEPPTESRDPAPGQEREEDQGAAETQVPDLEADLQELSQSKTGGECGNGPDDQGKILPKSEQFKMPEGGDRQPQV
partner: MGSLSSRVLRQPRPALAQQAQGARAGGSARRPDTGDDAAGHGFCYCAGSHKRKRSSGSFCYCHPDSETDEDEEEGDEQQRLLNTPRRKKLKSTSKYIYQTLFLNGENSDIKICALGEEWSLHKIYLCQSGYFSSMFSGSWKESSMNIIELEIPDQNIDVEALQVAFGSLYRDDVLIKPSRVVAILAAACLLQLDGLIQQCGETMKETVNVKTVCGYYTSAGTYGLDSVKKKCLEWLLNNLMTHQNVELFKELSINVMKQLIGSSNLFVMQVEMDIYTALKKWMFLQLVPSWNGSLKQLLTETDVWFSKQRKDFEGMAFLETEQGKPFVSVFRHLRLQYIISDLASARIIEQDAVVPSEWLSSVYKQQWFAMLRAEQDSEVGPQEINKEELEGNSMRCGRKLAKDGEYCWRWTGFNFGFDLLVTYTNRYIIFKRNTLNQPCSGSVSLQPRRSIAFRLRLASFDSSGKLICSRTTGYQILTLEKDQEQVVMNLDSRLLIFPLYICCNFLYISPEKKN

From IntAct's records for PubMed 31515488 come the findings set out here.

One assay covers variants of B1. To be noted: with ikip_human IKBIP.
For the variant MELYETSPYFYQEPRFYDGENYLPVHLQGFEPPGYERTELTLSPEAPGPLEDKGLGTPEHCPGQCLPWACKVCKRKSVSVDRRRAATLREKRRLKKVNEAFEALKRSTLLNPNQRLPKVEILRSAIQYIERLQALLSSLNQEERDLRYRGGGGPQPGVPSECSSHSASCSPEWGSALEFSTNPGDHLLTADPTDAHNLHSLTSIVDSITVEDVSVAFPDETMPN [A181T], the “effect of a mutation on the interaction” value is listed as “disrupting interaction strength”.

A further assay covers variants of B2. To be noted: with fcsd2_human FCHSD2, O94868.
Turning to MGHCCCKPYNCLQCLDKTNESALVKEKELSIELANIRDEVAFHTAKCEKLQKEKEELERRFEDEVKRLGWQQQAELQELEERLQLQFEVEMARLQEEHGDQLLSIRCQHQEQVEDLTASHDAALLEMENNHTVAITILQDDHDHKVQELMSTHELEKKELEENFEKLRLSLQDQVDTLTFQSQSLRDRARRFEEALRKNTEEQLEIALAPYQHLEEDMKSLKQVLEMKNQQIHEQEKKILELEKLAEKNIILEEKIQVLQQQNEDLKARIDQNTVVTRQLSEENANLQEYVEKETQEKKRLSRTNEELLWKLQTGDPTSPIKLSPTSPVYRGSSSGPSSPARVSTTPR [A89V], the “effect of a mutation on the interaction” value is on record as “with no effect”.

Variants of B3 are the subject of the next assay. The settings on record: with glyr1_human GLYR1, Q49A26.
MTERFDCHHCNESLFGKKYILREESPYCVVCFETLFSNTCEECGKPIGCDCKDLSYKDRHWHEACFHCSQCRNSLVDKPFAAKEDQLLCTDCYSNEYSSKCQECKKTIMPGTRKMEYKGSSWHETCFICHRCQQPIGTKSFIPKDNQNFCVPCYEKQHAMQCVQCKKPITTGGVTYREQPWHKECFVCTACRKQLSGQRFTARDDFAYCLNCFCDLYAKKCAGCTNPISGLGGTKYISFEERQWHNDCFNCKKCSLSLVGRGFLTERDDILCPDCGKDI [A37S]: the “effect of a mutation on the interaction” value is “with no effect”.
On to MTERFDCHHCNESLFGKKYILREESPYCVVCFETLFANTCEECGKPIGCDCKDLSYKDRHWHEACFHCSQCRNSLVDKPFAAKEDQLLCTDCYSKEYSSKCQECKKTIMPGTRKMEYKGSSWHETCFICHRCQQPIGTKSFIPKDNQNFCVPCYEKQHAMQCVQCKKPITTGGVTYREQPWHKECFVCTACRKQLSGQRFTARDDFAYCLNCFCDLYAKKCAGCTNPISGLGGTKYISFEERQWHNDCFNCKKCSLSLVGRGFLTERDDILCPDCGKDI [N95K], for which the “effect of a mutation on the interaction” value is listed as “with no effect”.

In another assay the parent is B4. To be noted: with creb3_human CREB3, O43889.
Take MYLQVETRTSSRLHLKRAPGIRSWSLLVGILSIGLAAAYYSGDSLGWKLFYVTGCLFVAVQNLEDWEEAIFDKSTGKVVLKTFSLYKKLLTLFRAGHDQVVVLLHDVRDVSVEEEKVRYFGKGYMVVLWLATGFSHPLTQSAVMGHRSDVEAIAKLITSFLELHCLESPTELSQSSDSEAGDPASQS [R129W]: the “effect of a mutation on the interaction” value is listed as “with no effect”.

Variants of B5 are the subject of another assay. To be noted: with gmcl1_human GMCL1, Q96IK5.
As to MIWRGRSTYRPRPRRSVPPPELIGPMLEPGDEEPQQEEPPTESRDPAPGQEREEDQGAAETQVPDLEADLQELSQSKTGGECGNGPDDQGKFLPKSEQFKMPEGGDRQPQV [I92F], the “effect of a mutation on the interaction” value was “with no effect”.
